The text below walks through data of US20190300611A1 (ARCH ONCOLOGY, published 2019).

The target of assay [1] is T1, human CD47 (human, UniProt Q08722 19-292).
T1 construct: On the surface of OV10 cells transfected with human CD47, fresh human RBCs, Jurkat T cells or human breast cancer tissue; also called hCD47; integrin-associated protein (IAP)
The experiment in a line: cell-based ELISA on OV10 hCD47 cells. The protocol:
Binding activities of VLX4, VLX8, and VLX9 chimeric (murine-human) and humanized mAbs were determined using a cell-based ELISA assay with human OV10 hCD47 cells expressing cell surface human CD47. OV10 hCD47 cells were grown in IMDM medium containing 10% heat inactivated fetal bovine serum (BioWest; S01520). One day before assay, 3×10⁴ cells were plated in 96 well cell bind plates (Corning #3300, VWR #66025-626) and were 95-100% confluent at the time of assay. Cells were washed and various concentrations of purified antibodies added in IMDM 37° C. for 1 hr in […]. Cells were then washed with media and incubated for an additional hour at 37° C. with HRP labeled secondary anti-human antibody (Promega) diluted 1/2500 in media. Cells were washed three times with PBS, and the peroxidase substrate 3,3′, 5,5′-tetramethylbenzidine is added (Sigma; Catalog #T4444). Reactions were terminated by the addition of HCl to 0.7N, and absorbance at 450 nm is determined using a Tecan model Infinite M200 plate reader. The apparent binding affinities of these clones to human OV10 hCD47 cells was determined by non-linear fit (Prism GraphPad software).
For orientation: In an ELISA, binding on a coated surface is turned into a signal by an enzyme label.

The target of assay [2] is T1, human CD47. In words: flow cytometry on human RBCs. The protocol:
Binding activities of chimeric (murine-human) and humanized VLX4, VLX8, and VLX9 mAbs to human CD47 on hRBCs were also determined using flow cytometry. hRBCs were incubated for 60 min on at 37° C. with various concentrations of the chimeric or humanized antibodies in a solution of phosphate buffered saline, pH 7.2, 2.5 mM EDTA (PBS+E). Cells were then washed with cold PBS+E, and incubated for an additional hour on ice with FITC labeled donkey anti-human antibody (Jackson Immuno Research Labs, West Grove, Pa.; Catalogue #709-096-149) in PBS+E. Cells were washed with PBS+E, antibody binding analyzed using a C6 Accuri Flow Cytometer (Becton Dickinson) and apparent binding affinities determined by non-linear fit (Prism GraphPad software) of the median fluorescence intensities at the various antibody concentrations.
In general terms: In flow cytometry, cells or beads pass a laser one at a time.

T1 sequence (Q08722 other isoform, or with tags, fused parts or gaps limits assumed): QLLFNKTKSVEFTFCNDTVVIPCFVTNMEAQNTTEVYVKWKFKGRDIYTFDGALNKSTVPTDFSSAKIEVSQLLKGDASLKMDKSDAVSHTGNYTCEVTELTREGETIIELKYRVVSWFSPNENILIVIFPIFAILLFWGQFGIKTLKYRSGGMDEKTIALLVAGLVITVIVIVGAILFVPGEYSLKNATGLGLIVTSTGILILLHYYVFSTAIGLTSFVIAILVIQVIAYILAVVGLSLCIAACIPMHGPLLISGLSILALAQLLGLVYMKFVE

B1: VLX4 IgG4 S228P (xi) (antibody)
heavy: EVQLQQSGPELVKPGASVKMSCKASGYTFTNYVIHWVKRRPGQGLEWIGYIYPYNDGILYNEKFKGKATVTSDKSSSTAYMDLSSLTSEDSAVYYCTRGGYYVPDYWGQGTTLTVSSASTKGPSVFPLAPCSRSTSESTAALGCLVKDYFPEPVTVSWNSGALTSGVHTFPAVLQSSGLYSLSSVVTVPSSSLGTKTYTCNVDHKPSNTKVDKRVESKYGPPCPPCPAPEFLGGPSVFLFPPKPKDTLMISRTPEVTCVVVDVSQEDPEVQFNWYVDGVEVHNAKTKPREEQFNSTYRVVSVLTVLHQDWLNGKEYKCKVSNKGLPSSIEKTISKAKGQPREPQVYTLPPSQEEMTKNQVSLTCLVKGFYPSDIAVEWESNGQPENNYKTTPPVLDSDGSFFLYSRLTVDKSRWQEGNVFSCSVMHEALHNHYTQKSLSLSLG
light: DVLMTQTPLSLPVNLGDQASISCRSRQSIVHTNGNTYLGWFLQKPGQSPKLLIYKVSNRFSGVPDRFSGSGSGTDFTLTISRVEAEDLGVYYCFQGSHVPYTFGGGTKLEIKRTVAAPSVFIFPPSDEQLKSGTASVVCLLNNFYPREAKVQWKVDNALQSGNSQESVTEQDSKDSTYSLSSTLTLSKADYEKHKVYACEVTHQGLSSPVTKSFNRGEC
For orientation: Kd means the equilibrium constant for the complex coming apart. As for B1, the Kd with human CD47 [1] worked out at 0.214 nM; with human CD47 [2] it was 0.099 nM.

B2: VLX4 IgG2 (xi) (antibody)
heavy: EVQLQQSGPELVKPGASVKMSCKASGYTFTNYVIHWVKRRPGQGLEWIGYIYPYNDGILYNEKFKGKATVTSDKSSSTAYMDLSSLTSEDSAVYYCTRGGYYVPDYWGQGTTLTVSSASTKGPSVFPLAPCSRSTSESTAALGCLVKDYFPEPVTVSWNSGALTSGVHTFPAVLQSSGLYSLSSVVTVPSSNFGTQTYTCNVDHKPSNTKVDKTVERKCCVECPPCPAPPVAGPSVFLFPPKPKDTLMISRTPEVTCVVVDVSHEDPEVQFNWYVDGVEVHNAKTKPREEQFNSTFRVVSVLTVVHQDWLNGKEYKCKVSNKGLPAPIEKTISKTKGQPREPQVYTLPPSREEMTKNQVSLTCLVKGFYPSDIAVEWESNGQPENNYKTTPPMLDSDGSFFLYSKLTVDKSRWQQGNVFSCSVMHEALHNHYTQKSLSLSPGK
light: DVLMTQTPLSLPVNLGDQASISCRSRQSIVHTNGNTYLGWFLQKPGQSPKLLIYKVSNRFSGVPDRFSGSGSGTDFTLTISRVEAEDLGVYYCFQGSHVPYTFGGGTKLEIKRTVAAPSVFIFPPSDEQLKSGTASVVCLLNNFYPREAKVQWKVDNALQSGNSQESVTEQDSKDSTYSLSSTLTLSKADYEKHKVYACEVTHQGLSSPVTKSFNRGEC
With B2, the Kd in the assay with human CD47 [1] is 0.431 nM; with human CD47 [2] it was 0.184 nM.

B3: VLX4 IgG4 PE(xi) (antibody)
heavy: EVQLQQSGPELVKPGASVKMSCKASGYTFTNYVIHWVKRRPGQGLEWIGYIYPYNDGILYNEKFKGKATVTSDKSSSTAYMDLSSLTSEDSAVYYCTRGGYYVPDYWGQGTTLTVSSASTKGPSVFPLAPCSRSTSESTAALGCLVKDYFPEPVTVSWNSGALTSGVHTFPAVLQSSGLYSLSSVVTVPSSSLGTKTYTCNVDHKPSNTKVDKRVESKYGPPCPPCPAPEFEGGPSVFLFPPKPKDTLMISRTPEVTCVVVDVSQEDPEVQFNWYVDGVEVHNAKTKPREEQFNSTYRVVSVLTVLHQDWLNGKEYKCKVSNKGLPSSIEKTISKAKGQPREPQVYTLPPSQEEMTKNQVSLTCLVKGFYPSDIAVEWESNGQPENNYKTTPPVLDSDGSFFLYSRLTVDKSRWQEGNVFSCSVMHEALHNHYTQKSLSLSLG
light: DVLMTQTPLSLPVNLGDQASISCRSRQSIVHTNGNTYLGWFLQKPGQSPKLLIYKVSNRFSGVPDRFSGSGSGTDFTLTISRVEAEDLGVYYCFQGSHVPYTFGGGTKLEIKRTVAAPSVFIFPPSDEQLKSGTASVVCLLNNFYPREAKVQWKVDNALQSGNSQESVTEQDSKDSTYSLSSTLTLSKADYEKHKVYACEVTHQGLSSPVTKSFNRGEC
notes: Murine-human chimera; also called VLX4 IgG4PE chimeric mAb
For B3, the Kd with human CD47 [1] is 0.225 nM; with human CD47 [2], 0.303 nM.
